{"source": "paper PMC12109899", "about": "“Aptamer-Based Planar Electric Double-Layer Field-Effect Transistor: A Novel Approach for Sensitive Troponin I Sensing”", "binders": {"B1": {"name": "Tro4 aptamer (ssDNA)", "DNA": "CGTGCAGTACGCCAACCTTTCTCATGCGCTGCCCCTCTTA", "modifications": "5' disulfide (S-S), reduced with TCEP to thiol; immobilized on gold"}}, "target": "cardiac troponin I (cTnI, TnI) (UniProt P19429 2-210)", "sequence (P19429 2-210)": "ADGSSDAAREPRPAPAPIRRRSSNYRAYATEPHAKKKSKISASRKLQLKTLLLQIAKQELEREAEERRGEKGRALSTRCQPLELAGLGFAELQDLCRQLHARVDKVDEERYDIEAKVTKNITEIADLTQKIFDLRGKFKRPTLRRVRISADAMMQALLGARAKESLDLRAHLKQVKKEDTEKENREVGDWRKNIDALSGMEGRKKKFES", "assay": "fluorescence decrease of surface-immobilized FAM aptamer; aptamer on gold electrode; pH 7.4; 0.02x PBS stated for the chip rinse; aptamer immobilized at 24 °C for 24 h; binding temperature not given", "conditions": "label: 3' FAM; single strand"}
{"binder": "B1", "values": [{"measurement": "binding result", "value": "binds"}]}
